Experimental data as given in the MegaScale stability set (Tsuboyama et al. 2023).

B1: EEHEE_rd4_0647 (parent)
chain: MQVTWGNVTVTFSNPEEAKKYAEKVARKLGGQVELHNGQFRIK

Variants of: B1
Test: folding stability dG (cDNA display proteolysis); higher = more stable
Conditions: PBS, room temperature

Folding stability dG [kcal/mol] of substitutions, site by site:
S13: P 2.58; G 2.5; Y 2.38; L 2.57; T 2.83; R 2.81; Q 2.71; H 2.62; D 2.75; W 2.34; V 2.51; A 2.8; M 2.6; F 2.49; C 3.28; N 2.79; I 2.52; E 2.65; K 2.86
E16: V 2.81; H 2.7; Q 2.7; R 2.55; S 2.68; G 2.54; N 2.56; K 2.52; L 2.78; D 2.79; A 2.78; P 1.4; F 2.71; T 2.75; Y 2.77; W 2.75; I 2.81; M 2.76; C 3.18
T11: Y 3.02; W 3.23; V 2.59
F12: A 0.449; S -0.107; M 1.38; R 0.663; Y 1.28; H 0.464; T 0.01; I 1.43; N -0.258; K 0.98; E -0.423; G -0.079; P -0.871; W 1.18; V 0.887; Q 0.017; L 1.96; C 2.49
E23: T 2.37; A 2.43; S 2.15; Q 2.62; C 3.37; Y 3.15; M 2.68; F 2.98; L 2.7; R 2.23; D 2.62; N 2.44; W 2.73; P 0.119; V 2.42; I 2.71; H 2.69; G 1.86; K 2.29
Y21: K 0.616; C 2.87; Q 0.996; T 0.931; H 1.36; R 0.486; N 0.633; E 0.876; W 2.52; P -0.824; V 1.47; D -0.099; L 1.74; F 3.05; S 0.62; M 1.71; G 0.194; I 1.34; A 1.3
V25: K 1.68; F 1.79; P -0.34; A 1.61; E 0.927; Q 1.87; Y 1.48; N 0.417; H 1.01; L 2.95; G 0.217; W 2.69; R 1.33; M 2.95; D 0.13; S 0.981; T 1.93; I 3.11
E17: I 2.66; M 2.83; A 2.93; T 2.74; D 2.92; C 3.18; K 2.69; H 2.7; P 1.01; R 2.62; W 2.53; N 2.47; Y 2.58; S 2.73; G 1.97; F 2.47; L 2.84; Q 2.76; V 2.64
N14: Y 1.91; E 2.2; F 1.98; G 2.12; T 2.89; L 2.23; I 2.08; M 1.99; Q 2.2; K 2.42; D 2.79; R 2.47; H 2.38; A 2.21; P 0.65; W 1.76; S 2.86; V 2.05
R27: K 2.88; P 0.58; C 3.21; W 2.3; L 2.75; N 2.37; A 2.78; T 2.31; V 2.36; H 2.51; G 2.13; E 2.61; M 2.59; F 2.45; S 2.4; D 2.18; I 2.52; Q 2.64; Y 2.41
A26: I 1.35; N 0.851; V 1.66; C 2.08; D 0.03; F 1; S 1.71; Q 1.06; Y 0.807; H 0.769; M 1.2; L 1.34; T 0.93; P -0.236; G 1.38; E 0.315; K 0.937; R 1.38; W 1.17
K24: Q 2.8; F 3.2; V 2.59; E 2.83; H 2.89; W 3.27; Y 3.25; I 2.75; G 2.37; N 2.5; M 3.16; S 2.73; D 2.73; T 2.61; P -0.146; L 2.93; C 3.81; A 3.01; R 2.88
A22: T 0.682; S 1.24; Y 0.931; R 0.493; G 0.944; E -0.084; P -0.509; L 1.62; K 0.426; Q 0.207; H 0.174; F 1.07; C 1.62; W 1.04; V 1.43; N 0.101; D -0.372; M 1.48; I 1.43
K20: W 2.67; M 2.75; Y 2.43; P 0.849; A 2.98; L 2.86; Q 2.72; V 2.71; H 2.57; R 2.96; D 2.54; N 2.58; F 2.41; T 2.62; G 2.13; I 2.77; S 2.64; E 2.73
K19: H 2.34; S 2.12; P 0.106; Q 2.61; E 2.21; L 3.02; Y 2.94; W 2.88; D 0.816; A 2.53; I 2.42; G 1.83; T 1.62; M 2.66; N 1.71; V 2.08; F 2.94
K28: E 2.72; G 2.01; W 3.23; Y 2.97; R 2.98; M 3.09; C 3.7; L 3.15; N 2.29; V 2.87; A 3.04; D 2.47; Q 2.79; S 2.51; P 0.676; T 2.54; F 2.97; I 3.18; H 2.9
A18: M 0.885; S 0.985; F 1.05; R 0.219; H 0.323; E 0.034; Q 0.42; V 0.732; L 1; D -0.206; Y 0.88; T 0.656; K 0.212; P -0.247; I 0.86; G 1.05; N 0.024; W 1.08; C 1.92
L29: E 1.33; R 1.62; P 0.143; K 1.36; H 2.06; C 2.92; Q 1.58; D 0.761; N 1.6; I 2.96; F 2.66; G 1.17; M 2.51; A 1.76
P15: K 2.83; G 2.46; V 2.93; D 1.92; A 2.89; L 2.77; H 2.88; M 3.03; R 2.78; E 2.54; C 3.26; F 3.41; Y 3.5; I 2.99; S 2.79; Q 2.7; T 2.83; N 2.29; W 3.08
